Biological target: the molecule itself
Test: SEC

Protein | stoichiometry N | binding result
oxidized TRC40 from Danio rerio (natural protein, oxidized cysteines: intra- and intermolecular disulfide bonds (positions not given)) not shown | ≥ 4 | –
oxidized Get3 from Saccharomyces cerevisiae (natural protein, UniProt Q12154 1-354, looked up, oxidized cysteines (positions not given)) MDLTVEPNLHSLITSTTHKWIFVGGKGGVGKTTSSCSIAIQMALSQPNKQFLLISTDPAHNLSDAFGEKFGKDARKVTGMNNLSCMEIDPSAALKDMNDMAVSRANNNGSDGQGDDLGSLLQGGALADLTGSIPGIDEALSFMEVMKHIKRQEQGEGETFDTVIFDTAPTGHTLRFLQLPNTLSKLLEKFGEITNKLGPMLNSFMGAGNVDISGKLNELKANVETIRQQFTDPDLTTFVCVCISEFLSLYETERLIQELISYDMDVNSIIVNQLLFAENDQEHNCKRCQARWKMQKKYLDQIDELYEDFHVVKMPLCAGEIRGLNNLTKFSQFLNKEYNPITDGKVIYELEDKE | – | binds
reduced Get3 from Saccharomyces cerevisiae (natural protein, UniProt Q12154 1-354, looked up) MDLTVEPNLHSLITSTTHKWIFVGGKGGVGKTTSSCSIAIQMALSQPNKQFLLISTDPAHNLSDAFGEKFGKDARKVTGMNNLSCMEIDPSAALKDMNDMAVSRANNNGSDGQGDDLGSLLQGGALADLTGSIPGIDEALSFMEVMKHIKRQEQGEGETFDTVIFDTAPTGHTLRFLQLPNTLSKLLEKFGEITNKLGPMLNSFMGAGNVDISGKLNELKANVETIRQQFTDPDLTTFVCVCISEFLSLYETERLIQELISYDMDVNSIIVNQLLFAENDQEHNCKRCQARWKMQKKYLDQIDELYEDFHVVKMPLCAGEIRGLNNLTKFSQFLNKEYNPITDGKVIYELEDKE | – | binds
reduced TRC40 from Danio rerio (natural protein) not shown | 2 | –
